Results taken from patent publication US20260092093A1 (TJ BIOPHARMA SHANGHAI, published 2026).
Changes are numbered by the printed parent chain.

T1: hIL-18 receptor (hIL-18Rα and hIL-18Rβ) (human, UniProt Q13478 19-541; O95256 20-599)
T1 sequence (looked up) 1: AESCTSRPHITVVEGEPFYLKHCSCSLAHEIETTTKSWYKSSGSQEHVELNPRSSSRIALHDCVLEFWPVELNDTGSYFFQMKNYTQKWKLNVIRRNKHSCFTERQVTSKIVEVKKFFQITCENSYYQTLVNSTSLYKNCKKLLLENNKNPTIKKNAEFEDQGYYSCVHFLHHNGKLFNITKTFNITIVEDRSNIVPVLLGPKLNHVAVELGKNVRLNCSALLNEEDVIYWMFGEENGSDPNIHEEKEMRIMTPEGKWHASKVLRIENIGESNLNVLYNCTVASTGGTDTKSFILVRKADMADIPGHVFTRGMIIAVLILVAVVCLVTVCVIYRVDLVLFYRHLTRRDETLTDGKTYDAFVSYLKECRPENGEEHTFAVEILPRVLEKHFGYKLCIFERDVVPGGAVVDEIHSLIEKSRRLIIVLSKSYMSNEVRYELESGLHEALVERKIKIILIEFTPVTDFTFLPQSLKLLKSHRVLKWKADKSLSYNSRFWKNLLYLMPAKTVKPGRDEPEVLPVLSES
T1 sequence (looked up) 2: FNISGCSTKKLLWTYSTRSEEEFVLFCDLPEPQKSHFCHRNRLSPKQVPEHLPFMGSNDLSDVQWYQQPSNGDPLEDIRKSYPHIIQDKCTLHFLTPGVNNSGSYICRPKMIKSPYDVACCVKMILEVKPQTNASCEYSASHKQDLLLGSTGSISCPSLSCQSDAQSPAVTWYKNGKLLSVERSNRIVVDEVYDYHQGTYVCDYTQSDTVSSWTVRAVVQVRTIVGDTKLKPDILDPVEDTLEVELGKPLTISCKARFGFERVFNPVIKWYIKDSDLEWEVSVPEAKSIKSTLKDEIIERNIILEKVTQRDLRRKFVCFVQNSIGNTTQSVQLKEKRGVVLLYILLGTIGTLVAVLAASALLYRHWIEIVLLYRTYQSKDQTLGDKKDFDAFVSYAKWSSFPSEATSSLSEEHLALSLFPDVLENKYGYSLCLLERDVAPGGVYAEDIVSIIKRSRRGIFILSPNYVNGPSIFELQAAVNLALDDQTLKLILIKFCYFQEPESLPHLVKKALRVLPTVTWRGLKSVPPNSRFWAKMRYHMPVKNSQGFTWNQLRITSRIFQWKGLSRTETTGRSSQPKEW

T2: hIL-18BP-hFc (human, UniProt O95998 31-194, limits assumed)
T2 sequence (looked up): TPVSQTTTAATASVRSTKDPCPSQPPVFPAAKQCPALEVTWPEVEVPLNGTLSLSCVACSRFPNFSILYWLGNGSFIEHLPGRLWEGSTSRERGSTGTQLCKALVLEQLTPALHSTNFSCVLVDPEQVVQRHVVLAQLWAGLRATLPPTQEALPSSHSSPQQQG

B1: IL-18 variant polypeptide M29 (ligand)
chain: YFPKLMSKLSVIRNLNDQVLFIDQGNRPLFEDMTDSDCRDNAPRTIFIISMYKFSDRRGMAVTISVKCEKISTLSCENKIISFKEMNPPDPIKDTKSDIIFFQRSVPGHDNKMQFESSSYEGYFLACEKERDLFKLILKKEDELGDRSIMFTVQNED
B2: IL-18 variant polypeptide M12 (ligand)
chain: B1 chain with M6K, F54G, D56G, R57A, P91T
B3: IL-18 variant polypeptide M11 (ligand)
chain: B1 chain with M6R, F54S, D56R, R57N, P91G, R104T
B4: IL-18 variant polypeptide M32 (ligand)
chain: B1 chain with M6G, F54S, D56S, P91N
B5: IL-18 variant polypeptide M15 (ligand)
chain: B1 chain with M6R, F54S, D56Y, R57T, P91G
B6: IL-18 variant polypeptide WM10 (ligand)
chain: B1 chain with M6K, F54D, D56Q, R57P, P91S
B7: IL-18 variant polypeptide M35 (ligand)
chain: B1 chain with M6R, F54G, D56G, R57A, P91G
B8: IL-18 variant polypeptide M13 (ligand)
chain: B1 chain with M6K, F54Q, D56I, R57W, P91N
B9: IL-18 variant polypeptide WM8 (ligand)
chain: B1 chain with M6R, F54D, D56Q, R57P, P91S
B10: IL-18 variant polypeptide M33 (ligand)
chain: B1 chain with P3E, M6H, F54R, D56T, R57H, P91N
B11: IL-18 variant polypeptide MM5 (ligand)
chain: B1 chain with P3G, M6G, F54L, D56T, R57E, P91G, R104S
B12: IL-18 variant polypeptide M36 (ligand)
chain: B1 chain with M6S, F54A, R57Q, P91G
B13: IL-18 variant polypeptide WM6 (ligand)
chain: B1 chain with P3D, M6K, F54D, D56Q, R57P, P91S
B14: IL-18 variant polypeptide M20 (ligand)
chain: B1 chain with M6R, F54S, D56R, R57S, P91G, R104S
B15: IL-18 variant polypeptide M16 (ligand)
chain: B1 chain with M6R, F54S, D56R, R57N, P91G, R104S
B16: IL-18 variant polypeptide M26 (ligand)
chain: B1 chain with M6R, F54H, R57K, P91V, R104Y
B17: IL-18 variant polypeptide M25 (ligand)
chain: B1 chain with M6R, F54L, D56T, R57T, P91R
B18: IL-18 variant polypeptide M18 (ligand)
chain: B1 chain with M6R, F54S, D56R, P91G, R104S
B19: IL-18 variant polypeptide M23 (ligand)
chain: B1 chain with M6R, F54Y, D56T, P91N
B20: IL-18 variant polypeptide M14 (ligand)
chain: B1 chain with P3N, M6K, F54P, D56S, R57S, P91R, R104A
B21: IL-18 variant polypeptide M19 (ligand)
chain: B1 chain with M6K, F54H, D56E, R57Q, P91A
B22: IL-18 variant polypeptide M22 (ligand)
chain: B1 chain with M6R, F54Y, D56R, R57G, P91K, R104S

Target: T1, hIL-18 receptor (hIL-18Rα and hIL-18Rβ)
Assay: cell-based or functional assay

Binder	EC50 (nM), PBMC assay (hIFNγ release) [nM]
B1	0.14
B2	0.043
B3	0.044
B4	0.13
B5	0.049
B6	0.53
B7	0.085
B8	0.02
B9	0.68
B10	0.51
B11	0.035
B12	1.1

Target: T2, hIL-18BP-hFc
Assay: cell-based or functional assay

Binder	EC50 (nM) in the Presence of 1 µg/mL hIL-18BP-hFc, PBMC assay (hIFNγ release) [nM]	EC50 Fold Change (+BP/-BP), PBMC assay (hIFNγ release) [fold]
B1	0.096	0.69
B2	0.045	1.05
B3	0.068	1.55
B4	0.1	0.77
B5	0.036	0.73
B13	~0.04	–
B6	0.44	0.83
B7	0.14	1.65
B8	0.025	1.25
B9	1.02	1.5
B10	0.35	0.69
B11	0.045	1.29
B12	0.8	0.73

Target: T1, hIL-18 receptor (hIL-18Rα and hIL-18Rβ)
Assay: cell-based or functional assay
Remark: another data set of the same source

Binder	EC50 (nM), hIL-18 reporter assay [nM]
B1	4.8
B2	0.04
B3	0.13
B4	5.9
B5	0.13
B14	2.2
B15	0.29
B13	0.06
B6	14.7
B16	0.068
B7	0.62
B17	0.58
B18	0.58
B8	0.035
B19	0.8
B9	7
B20	0.04
B10	18.4
B21	0.66
B11	0.028
B12	3.9
B22	7.2

Target: T2, hIL-18BP-hFc
Assay: cell-based or functional assay
Remark: another data set of the same source

Binder	EC50 (nM) in the Presence of 1 µg/mL hIL-18BP-hFc, hIL-18 reporter assay [nM]	EC50 Fold Change (+BP/-BP), hIL-18 reporter assay [fold]
B1	1.9	0.4
B2	0.03	0.75
B3	0.21	1.62
B4	4.1	0.69
B5	0.12	0.92
B14	0.5	0.23
B15	0.34	1.17
B13	0.74	12.3
B6	15.6	1.06
B16	0.094	1.38
B7	0.51	0.82
B17	1.15	1.98
B18	0.56	0.97
B8	0.026	0.74
B19	1.4	1.75
B9	5.2	0.74
B20	0.03	0.75
B10	10.7	0.58
B21	0.31	0.47
B11	0.08	2.86
B12	2.5	0.64
B22	7.5	1.04
